Assay results from article PMC10873556, “G-quadruplex DNA structure is a positive regulator of MYC transcription”.

Experiments:
SP1 [1] = molecular target: T1, SP1 (human, UniProt P08047 1-785); experiment: BLI; 100 mM KCl, 12.5 mM MgCl2, 0.01 mM Zn(OAc)2; apparent, most abundant population, 2:1 heterogeneous ligand fit; BLI: 25 mM HEPES pH 7.5, 100 mM KCl, 12.5 mM MgCl2, 20% glycerol, 0.1% Igepal CA-630, 0.01 mM Zn(OAc)2, 1 mM DTT, 3% BSA, temperature not stated; pull-down: oligos annealed in 10 mM Tris-HCl pH 7.4 with (G4) or without (ds) 100 mM KCl; conditions: protein: recombinant; intramolecular G4
SP1 [2] = molecular target: T1, SP1; experiment: BLI; 100 nM SP1; negligible binding; BLI: 25 mM HEPES pH 7.5, 100 mM KCl, 12.5 mM MgCl2, 20% glycerol, 0.1% Igepal CA-630, 0.01 mM Zn(OAc)2, 1 mM DTT, 3% BSA, temperature not stated; pull-down: oligos annealed in 10 mM Tris-HCl pH 7.4 with (G4) or without (ds) 100 mM KCl; conditions: protein: recombinant

T1 sequence (P08047 whole entry): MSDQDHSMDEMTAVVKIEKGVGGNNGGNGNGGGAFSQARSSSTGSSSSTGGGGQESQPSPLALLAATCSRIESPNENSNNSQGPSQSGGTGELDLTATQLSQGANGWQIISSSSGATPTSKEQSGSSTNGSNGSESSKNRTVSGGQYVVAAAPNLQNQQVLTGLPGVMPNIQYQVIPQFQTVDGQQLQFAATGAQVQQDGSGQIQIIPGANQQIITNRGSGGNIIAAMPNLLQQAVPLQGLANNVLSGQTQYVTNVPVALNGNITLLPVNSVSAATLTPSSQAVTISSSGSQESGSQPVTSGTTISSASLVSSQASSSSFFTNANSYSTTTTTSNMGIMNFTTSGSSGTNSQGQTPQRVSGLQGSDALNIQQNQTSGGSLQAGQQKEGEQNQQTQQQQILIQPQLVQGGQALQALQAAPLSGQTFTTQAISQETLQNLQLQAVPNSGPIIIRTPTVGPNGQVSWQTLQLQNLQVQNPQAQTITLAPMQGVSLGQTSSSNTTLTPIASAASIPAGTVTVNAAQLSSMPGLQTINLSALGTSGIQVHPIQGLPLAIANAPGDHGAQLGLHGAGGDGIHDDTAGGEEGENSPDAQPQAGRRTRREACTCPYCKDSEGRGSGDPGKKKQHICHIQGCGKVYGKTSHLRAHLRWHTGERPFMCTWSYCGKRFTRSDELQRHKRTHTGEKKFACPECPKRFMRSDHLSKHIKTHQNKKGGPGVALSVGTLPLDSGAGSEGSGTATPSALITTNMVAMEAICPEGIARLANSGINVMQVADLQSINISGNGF

B1: MYC G4 ss (structured_DNA)
DNA: TTTTTGGGGAGGGTGGGGAGGGTGGGGAAGG
SP1 [1]
  Kd: 5.6 nM

B2: MYC MUT ss (ssDNA)
DNA: TTTTTTAAGAGCGTTAAGAGCGTGAACAAGG
SP1 [2]
  binding result: no binding
